For this assay, the target named is T1, mature human SMAC^56-C (human, UniProt Q9NR28 56-239).
T1 construct: SMAC (DIABLO), mature form starting from Ala56 to the C terminus; expressed as a SUMO fusion in pRSF-DUET1 so that the N terminus starts from Ala56; also called SMAC^56-C,Strep-II; mature SMAC; source: E. coli BL21 (DE3) Rosetta 2 pLysS, purified (His-TRAP, Superdex 75); not shown: SUMO, N-terminal, cleaved
T1 sequence (looked up): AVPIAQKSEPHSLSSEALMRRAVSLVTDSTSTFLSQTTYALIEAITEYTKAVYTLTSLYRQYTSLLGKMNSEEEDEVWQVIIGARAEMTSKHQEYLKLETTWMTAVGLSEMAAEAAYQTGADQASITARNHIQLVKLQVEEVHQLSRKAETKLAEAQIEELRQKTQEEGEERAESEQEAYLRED
Put plainly: SEC; gel filtration elution profiles of XIAP-RNF38^WT, SMAC^56-C and the E3/SMAC mixture. The note with it: both partners purified. On the technique in general: Size exclusion chromatography separates by hydrodynamic size, large species first.

B1: XIAP^145-430-RNF38^389-C (other, UniProt P98170 145-430, looked up)
chain: QVVDISDTIYPRNPAMYSEEARLKSFQNWPDYAHLTPRELASAGLYYTGIGDQVQCFCCGGKLKNWEPCDRAWSEHRRHFPNCFFVLGRNLNIRSESDAVSSDRNFPNSTNLPRNPSMADYEARIFTFGTWIYSVNKEQLARAGFYALGEGDKVKCFHCGGGLTDWKPSEDPWEQHAKWYPGCKYLLEQKGQEYINNIHLTHSLEECLVRTTEKTPSLTRRIDDTIFQNPMVQEAIRMGFSFKDIKKIMEEKIQISGSNYKSLEVLVADLVNAQKDSMQDESSQTSTKADIEQLPSYRFNPNNHQSEQTLCVVCMCDFESRQLLRVLPCNHEFHAKCVDKWLKANRTCPICRADASEVHRDSE
notes: XIAP (BIRC4) residues 145-430 with the substrate-recruiting BIR2 and BIR3 domains; RNF38 RING domain, residue 389 to the C terminus; no linker between the two parts is told; also called XIAP-RNF38; XIAP-RNF38^WT; source: E. coli BL21 (DE3) Rosetta 2 pLysS, purified
For B1, the binding result is “binds”.

These data come from paper PMC12326332, “Tuning ubiquitin transfer by RING E3 ubiquitin ligases through the linchpin residue” (Life Science Alliance, 2025).
